We go through nine molecules from US20240209100A1 (DIAGONAL THERAPEUTICS, published 2024).

For this test, the target named is T1, IL-18 receptor (IL-18Rα/IL-18Rβ) overexpressed on HEK-Blue IL-18 cells (Homo sapiens (Human), UniProt Q13478 19-541; O95256 20-599).
T1 sequence 1: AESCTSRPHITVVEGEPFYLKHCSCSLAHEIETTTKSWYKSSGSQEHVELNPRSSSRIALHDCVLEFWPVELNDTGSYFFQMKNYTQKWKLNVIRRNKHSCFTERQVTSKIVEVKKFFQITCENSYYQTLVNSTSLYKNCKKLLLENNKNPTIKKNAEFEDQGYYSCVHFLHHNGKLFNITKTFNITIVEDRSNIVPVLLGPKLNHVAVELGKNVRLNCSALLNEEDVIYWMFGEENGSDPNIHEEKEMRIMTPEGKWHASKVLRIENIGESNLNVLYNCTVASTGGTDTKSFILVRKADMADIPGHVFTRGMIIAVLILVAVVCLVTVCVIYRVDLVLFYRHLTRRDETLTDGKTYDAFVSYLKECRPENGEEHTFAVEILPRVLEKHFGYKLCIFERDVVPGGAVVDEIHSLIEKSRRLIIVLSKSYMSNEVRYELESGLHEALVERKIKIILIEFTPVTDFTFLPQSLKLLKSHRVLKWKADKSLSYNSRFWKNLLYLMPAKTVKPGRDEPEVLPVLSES
T1 sequence 2: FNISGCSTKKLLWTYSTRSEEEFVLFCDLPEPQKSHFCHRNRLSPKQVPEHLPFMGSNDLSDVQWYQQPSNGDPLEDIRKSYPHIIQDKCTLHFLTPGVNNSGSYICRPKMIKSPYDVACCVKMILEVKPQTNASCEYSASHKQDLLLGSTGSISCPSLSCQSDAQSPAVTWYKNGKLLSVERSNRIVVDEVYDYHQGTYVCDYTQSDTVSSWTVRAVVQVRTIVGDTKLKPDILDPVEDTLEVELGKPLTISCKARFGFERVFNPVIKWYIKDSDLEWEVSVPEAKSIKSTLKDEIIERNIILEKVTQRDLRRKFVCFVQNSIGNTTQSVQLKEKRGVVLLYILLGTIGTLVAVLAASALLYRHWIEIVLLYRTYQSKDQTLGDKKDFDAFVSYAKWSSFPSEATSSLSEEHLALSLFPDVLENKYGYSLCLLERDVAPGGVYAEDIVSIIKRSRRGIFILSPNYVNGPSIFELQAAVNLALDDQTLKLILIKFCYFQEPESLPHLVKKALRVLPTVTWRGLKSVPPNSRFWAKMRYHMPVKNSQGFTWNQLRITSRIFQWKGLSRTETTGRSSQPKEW
Nature of the test: cell-based or functional assay.

B1: DGL160 (bispecific antibody)
heavy 1: QVQLVESGGGLVQAGGSLRLSCAASGRTFSSYTMGWFRQAPGKEREFVAAISWSAGRTYYADSVKGRFTISRDNAKNTVYLQMNSLKPEDTAVYFCAAEEAPDWAPIDCSGYGCLSLYDYWGQGTQVTVSSDKGPSVFPLAPEPKSSEVQLVESGGGLVQAGGSLRLSCAASGRTFRNYHMGWFRQAPGQEREFVAAISSSGGKTSYPDSVNGRFTISRDNAKNTVYLQMNNLKVEDTAVYYCAADPRYWVAAGGSEPENVEVWGQGTLVTVSSDKTHTCPPCPAPEAAGGPSVFLFPPKPKDTLMISRTPEVTCVVVDVSHEDPEVKFNWYVDGVEVHNAKTKPREEQYNSTYRVVSVLTVLHQDWLNGKEYKCKVSNKALPAPIEKTISKAKGQPREPQVCTLPPSRDELTKNQVSLSCAVKGFYPSDIAVEWESNGQPENNYKTTPPVLDSDGSFFLVSKLTVDKSRWQQGNVFSCSVMHEALHNHYTQKSLSLSPG
heavy 2: not shown
Consider B1, for which the “HEK-Blue IL-18: Abs 405” value was 0.16 Abs and the “HEK-Blue IL-18: Fold over Background” value is 1.3 fold.

B2: DGL167 (bispecific antibody)
heavy 1: QVQLVESGGGLVQAGGSLRLSCAASGRTFSKHAMGWFRQAPGKEREFVAAIDWSGGSTYYADSVKGRFTISRDNAKNTVYLQMDSLKPEDTAVYYCAADSYTDYAQLWLPELESEYDYWGQGTQVTVSSGGGSQVQLQESGGGLVQAGGSLKLSCQASGLTFKRNTMGWFRQAPGKEREFVAHFLWTGGETDYADAVKGRFTISRDNAKNTVYLQMNSLKPEDTAVYFCAANYAGYRIDGYQYWGQGTQVTVSSDKTHTCPPCPAPEAAGGPSVFLFPPKPKDTLMISRTPEVTCVVVDVSHEDPEVKFNWYVDGVEVHNAKTKPREEQYNSTYRVVSVLTVLHQDWLNGKEYKCKVSNKALPAPIEKTISKAKGQPREPQVCTLPPSRDELTKNQVSLSCAVKGFYPSDIAVEWESNGQPENNYKTTPPVLDSDGSFFLVSKLTVDKSRWQQGNVFSCSVMHEALHNHYTQKSLSLSPG
heavy 2: not shown
For the molecule B2, the “HEK-Blue IL-18: Abs 405” value came to 0.66 Abs and the “HEK-Blue IL-18: Fold over Background” value was 5.5 fold.

B3: DGL168 (bispecific antibody)
heavy 1: QVQLVESGGGLVQAGGSLRLSCAASGRTFSSYNMGWFRQAPGKERESVAAISWSGGSSYYADSVKGRFTISRDNAKPTVYLQMNSLKPEDTAVYYCAADRDSEEWDGSSWFFKSDYWGQGTQVTVSSGGGSQVQLVESGGGLVQTGGPLRLSCAASGGTFSRYTMGWFRQAPGKEREYVAAISWRGSSIYYADAVKGRFTISRDSAKSTVYLQMNNLNSDDTAVYYCAADRTDLPRNAGEYGYWGQGTQVTVSSDKTHTCPPCPAPEAAGGPSVFLFPPKPKDTLMISRTPEVTCVVVDVSHEDPEVKFNWYVDGVEVHNAKTKPREEQYNSTYRVVSVLTVLHQDWLNGKEYKCKVSNKALPAPIEKTISKAKGQPREPQVCTLPPSRDELTKNQVSLSCAVKGFYPSDIAVEWESNGQPENNYKTTPPVLDSDGSFFLVSKLTVDKSRWQQGNVFSCSVMHEALHNHYTQKSLSLSPG
heavy 2: not shown
Regarding B3, the “HEK-Blue IL-18: Abs 405” value is 0.62 Abs and the “HEK-Blue IL-18: Fold over Background” value amounted to 5.1 fold.

B4: DGL161 (bispecific antibody)
heavy 1: EVQLVESGGGLVQPGGSLRLSCAASGFFLDDYVLGWFRQAPGKPREGVSCISSRGRYLNYAETVKGRFTISRSNAKNTVYLQMNNLEPEDTAVYYCAAVRRVSEVCKLAEDDFASWGQGTQVTVSSDKGPSVFPLAPEPKSSQVQLVESGGGLVQAGDSLRLSCVASERTFSSYTMGWFRQAPGKEREFTAALSWWNGGISTAYADSVKGRFTISRDNAKNTVYLQMNSLKTEDTALYYCAAARDRMPRADEYDYWGQGTQVTVSSDKTHTCPPCPAPEAAGGPSVFLFPPKPKDTLMISRTPEVTCVVVDVSHEDPEVKFNWYVDGVEVHNAKTKPREEQYNSTYRVVSVLTVLHQDWLNGKEYKCKVSNKALPAPIEKTISKAKGQPREPQVCTLPPSRDELTKNQVSLSCAVKGFYPSDIAVEWESNGQPENNYKTTPPVLDSDGSFFLVSKLTVDKSRWQQGNVFSCSVMHEALHNHYTQKSLSLSPG
heavy 2: not shown
For the molecule B4, the “HEK-Blue IL-18: Abs 405” value was found to be 0.19 Abs and the “HEK-Blue IL-18: Fold over Background” value worked out at 1.6 fold.

B5: DGL164 (bispecific antibody)
heavy 1: QVQLVESGGGLVQAGGSLRLSCAASGRTFSSYTMGWFRQAPGKEREFVAAISWSAGRTYYADSVKGRFTISRDNAKNTVYLQMNSLKPEDTAVYFCAAEEAPDWAPIDCSGYGCLSLYDYWGQGTQVTVSSDKGPSVFPLAPEPKSSQVQLVESGGGLVQAGGSLRLSCAASQTGFNMNRMGWYRQAPGKQRELVATITGGGSTTYADSVKGRFDISRGNVENNLYLQMNSLKPEDTAVYYCNALLFGRDYWGQGTQVTVSSDKTHTCPPCPAPEAAGGPSVFLFPPKPKDTLMISRTPEVTCVVVDVSHEDPEVKFNWYVDGVEVHNAKTKPREEQYNSTYRVVSVLTVLHQDWLNGKEYKCKVSNKALPAPIEKTISKAKGQPREPQVCTLPPSRDELTKNQVSLSCAVKGFYPSDIAVEWESNGQPENNYKTTPPVLDSDGSFFLVSKLTVDKSRWQQGNVFSCSVMHEALHNHYTQKSLSLSPG
heavy 2: not shown
Consider B5, for which the “HEK-Blue IL-18: Abs 405” value was determined as 0.28 Abs and the “HEK-Blue IL-18: Fold over Background” value worked out at 2.3 fold.

B6: DGL163 (bispecific antibody)
heavy 1: QVQLVESGGGLVQAGGSLRLSCAASGRTFSSYNMGWFRQAPGKERESVAAISWSGGSSYYADSVKGRFTISRDNAKPTVYLQMNSLKPEDTAVYYCAADRDSEEWDGSSWFFKSDYWGQGTQVTVSSDKGPSVFPLAPEPKSSQVQLVESGGGLVQTGGPLRLSCAASGGTFSRYTMGWFRQAPGKEREYVAAISWRGSSIYYADAVKGRFTISRDSAKSTVYLQMNNLNSDDTAVYYCAADRTDLPRNAGEYGYWGQGTQVTVSSDKTHTCPPCPAPEAAGGPSVFLFPPKPKDTLMISRTPEVTCVVVDVSHEDPEVKFNWYVDGVEVHNAKTKPREEQYNSTYRVVSVLTVLHQDWLNGKEYKCKVSNKALPAPIEKTISKAKGQPREPQVCTLPPSRDELTKNQVSLSCAVKGFYPSDIAVEWESNGQPENNYKTTPPVLDSDGSFFLVSKLTVDKSRWQQGNVFSCSVMHEALHNHYTQKSLSLSPG
heavy 2: not shown
On to B6, for which the “HEK-Blue IL-18: Abs 405” value is 0.36 Abs and the “HEK-Blue IL-18: Fold over Background” value is 3 fold.

B7: DGL165 (bispecific antibody)
heavy 1: QVQLVESGGGLVQAGGSLRLSCAASGRTFSSYTMGWFRQAPGKEREFVAAISWSAGRTYYADSVKGRFTISRDNAKNTVYLQMNSLKPEDTAVYFCAAEEAPDWAPIDCSGYGCLSLYDYWGQGTQVTVSSGGGSEVQLVESGGGLVQAGGSLRLSCAASGRTFRNYHMGWFRQAPGQEREFVAAISSSGGKTSYPDSVNGRFTISRDNAKNTVYLQMNNLKVEDTAVYYCAADPRYWVAAGGSEPENVEVWGQGTLVTVSSDKTHTCPPCPAPEAAGGPSVFLFPPKPKDTLMISRTPEVTCVVVDVSHEDPEVKFNWYVDGVEVHNAKTKPREEQYNSTYRVVSVLTVLHQDWLNGKEYKCKVSNKALPAPIEKTISKAKGQPREPQVCTLPPSRDELTKNQVSLSCAVKGFYPSDIAVEWESNGQPENNYKTTPPVLDSDGSFFLVSKLTVDKSRWQQGNVFSCSVMHEALHNHYTQKSLSLSPG
heavy 2: not shown
In the case of B7, the “HEK-Blue IL-18: Abs 405” value was 0.19 Abs and the “HEK-Blue IL-18: Fold over Background” value was determined as 1.6 fold.

B8: DGL162 (bispecific antibody)
heavy 1: QVQLVESGGGLVQAGGSLRLSCAASGRTFSKHAMGWFRQAPGKEREFVAAIDWSGGSTYYADSVKGRFTISRDNAKNTVYLQMDSLKPEDTAVYYCAADSYTDYAQLWLPELESEYDYWGQGTQVTVSSDKGPSVFPLAPEPKSSQVQLQESGGGLVQAGGSLKLSCQASGLTFKRNTMGWFRQAPGKEREFVAHFLWTGGETDYADAVKGRFTISRDNAKNTVYLQMNSLKPEDTAVYFCAANYAGYRIDGYQYWGQGTQVTVSSDKTHTCPPCPAPEAAGGPSVFLFPPKPKDTLMISRTPEVTCVVVDVSHEDPEVKFNWYVDGVEVHNAKTKPREEQYNSTYRVVSVLTVLHQDWLNGKEYKCKVSNKALPAPIEKTISKAKGQPREPQVCTLPPSRDELTKNQVSLSCAVKGFYPSDIAVEWESNGQPENNYKTTPPVLDSDGSFFLVSKLTVDKSRWQQGNVFSCSVMHEALHNHYTQKSLSLSPG
heavy 2: not shown
With B8, the “HEK-Blue IL-18: Abs 405” value amounted to 0.79 Abs and the “HEK-Blue IL-18: Fold over Background” value turned out to be 6.6 fold.

B9: DGL166 (bispecific antibody)
heavy 1: EVQLVESGGGLVQPGGSLRLSCAASGFFLDDYVLGWFRQAPGKPREGVSCISSRGRYLNYAETVKGRFTISRSNAKNTVYLQMNNLEPEDTAVYYCAAVRRVSEVCKLAEDDFASWGQGTQVTVSSGGGSQVQLVESGGGLVQAGDSLRLSCVASERTFSSYTMGWFRQAPGKEREFTAALSWWNGGISTAYADSVKGRFTISRDNAKNTVYLQMNSLKTEDTALYYCAAARDRMPRADEYDYWGQGTQVTVSSDKTHTCPPCPAPEAAGGPSVFLFPPKPKDTLMISRTPEVTCVVVDVSHEDPEVKFNWYVDGVEVHNAKTKPREEQYNSTYRVVSVLTVLHQDWLNGKEYKCKVSNKALPAPIEKTISKAKGQPREPQVCTLPPSRDELTKNQVSLSCAVKGFYPSDIAVEWESNGQPENNYKTTPPVLDSDGSFFLVSKLTVDKSRWQQGNVFSCSVMHEALHNHYTQKSLSLSPG
heavy 2: not shown
Consider B9, for which the “HEK-Blue IL-18: Abs 405” value was 0.12 Abs and the “HEK-Blue IL-18: Fold over Background” value was found to be 1 fold.
